According to the supplement of paper PMC6757056:
± gives the standard deviation of the averaged measurements.

B1: library; a variant is named by its letters at N, in order (parent)
chain: GCUGUCACCGAGAAACUGUGAAGUAUAUCUUAAACCUGGGCACUUAAAAGAUAUAUGGAGUUAGUAGUGCAACCUGCUCGGUCUGAUGAGUCCNNNNNNGGACGAAACAGC

What was measured:
cyclic di-GMP [1] = variants of: B1; assay: normalized RNA/DNA level without ligand (relative to sTRSVctl = 100) (log10 (% of sTRSVctl)); HEK293T; ligand: cyclic di-GMP (c-di-GMP-II aptamer); higher = less ribozyme self-cleavage, higher mRNA level; conditions: reporter: mCherry (pCS4076), ligand present: no
How it was run: (§1)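 Total RNA, extracted with EDTA 72 h after HEK293T cells were transfected with 4 µg per 6-well well of reporter-linked ribozyme switch library plasmids, was reverse-transcribed, amplified, barcoded and sequenced. Ligand, if used, was added 1 h before transfection. RNA level was derived from RNA reads divided by DNA reads and normalized to a spiked-in non-cleaving sequence or to the top sequences. This was multiplied by 100 and log10-transformed, with the top set of 25 sequences and a ≥100 DNA read minimum.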

cyclic di-GMP [2] = variants of: B1; assay: normalized RNA/DNA level with ligand (relative to sTRSVctl = 100) (log10 (% of sTRSVctl)); HEK293T; ligand: cyclic di-GMP (c-di-GMP-II aptamer); ligand concentration (+) RNA-Seq: 1 mM; higher = less ribozyme self-cleavage, higher mRNA level; conditions: reporter: mCherry (pCS4076), ligand present: yes
How it was run: as §1

| Variant | normalized RNA/DNA level without ligand (log10) (cyclic di-GMP [1]) | normalized RNA/DNA level with ligand (log10) (cyclic di-GMP [2]) |
| --- | --- | --- |
| CCGAUC | 1.55 ± 0.019 | 1.73 ± 0.094 |
| CCGAUA | 1.31 ± 0.13 | 1.54 ± 0.075 |
| CCGAUU | 1.54 ± 0.052 | 1.73 ± 0.12 |
| ACCGUU | 1.52 ± 0.028 | 1.72 ± 0.1 |
| ACCGUG | 1.57 ± 0.096 | 1.77 ± 0.097 |
| ACCGUA | 1.51 ± 0.034 | 1.68 ± 0.13 |
| ACCGUC | 1.73 ± 0.028 | 1.83 ± 0.11 |
| GCGGCA | 1.82 ± 0.032 | 1.9 ± 0.12 |
| GCGGCC | 1.73 ± 0.039 | 1.86 ± 0.15 |
| ACGCGU | 1.504 ± 0.0098 | 1.71 ± 0.14 |
| ACGCGA | 1.4 ± 0.11 | 1.62 ± 0.11 |
| ACGCGC | 1.629 ± 0.016 | 1.79 ± 0.11 |
| UCGCGU | 1.66 ± 0.083 | 1.84 ± 0.089 |
| UCGCGG | 1.78 ± 0.051 | 1.85 ± 0.14 |
| UCGCGC | 1.73 ± 0.029 | 1.89 ± 0.093 |
| UCGGAC | 1.66 ± 0.029 | 1.8 ± 0.13 |
| GCCCGU | 1.73 ± 0.048 | 1.84 ± 0.14 |
| GCCCGC | 1.76 ± 0.04 | 1.86 ± 0.15 |
| GCCCGA | 1.62 ± 0.052 | 1.79 ± 0.079 |
| CCGCCU | 1.7 ± 0.0065 | 1.84 ± 0.099 |
| CCGCCG | 1.738 ± 0.01 | 1.82 ± 0.1 |
| GCGCAA | 1.57 ± 0.044 | 1.72 ± 0.13 |
| GCGCAC | 1.51 ± 0.075 | 1.66 ± 0.075 |

| Variant | normalized RNA/DNA level without ligand (log10) (cyclic di-GMP [1]) | normalized RNA/DNA level with ligand (log10) (cyclic di-GMP [2]) |
| --- | --- | --- |
| GCGCAG | 1.78 ± 0.023 | 1.9 ± 0.094 |
| CCGCUC | 1.66 ± 0.029 | 1.85 ± 0.094 |
| CCGCUA | 1.43 ± 0.078 | 1.68 ± 0.091 |
| CCGCUG | 1.28 ± 0.15 | 1.56 ± 0.12 |
| CCCUUU | 1.61 ± 0.053 | 1.83 ± 0.096 |
| CCCUUC | 1.729 ± 0.0068 | 1.86 ± 0.082 |
| CCCUUG | 1.643 ± 0.0095 | 1.81 ± 0.13 |
| CCCUUA | 1.47 ± 0.04 | 1.7 ± 0.15 |
| ACGACU | 1.51 ± 0.085 | 1.73 ± 0.14 |
| ACGACG | 1.57 ± 0.058 | 1.74 ± 0.082 |
| ACGACA | 1.52 ± 0.087 | 1.74 ± 0.085 |
| ACGGAC | 1.52 ± 0.075 | 1.73 ± 0.09 |
| UCCGUC | 1.75 ± 0.018 | 1.9 ± 0.14 |
| UCCGUG | 1.73 ± 0.033 | 1.85 ± 0.11 |
| UCCGUU | 1.6717 ± 0.00065 | 1.85 ± 0.12 |
| UCCGUA | 1.51 ± 0.1 | 1.7 ± 0.084 |
| UCGCCG | 1.81 ± 0.091 | 1.95 ± 0.14 |
| UCGCCU | 1.76 ± 0.029 | 1.92 ± 0.12 |
| GCCCCG | 1.799 ± 0.012 | 1.84 ± 0.086 |
| UCCUCU | 1.74 ± 0.06 | 1.87 ± 0.13 |
| GCCUUU | 1.69 ± 0.051 | 1.88 ± 0.14 |
| GCCUUC | 1.61 ± 0.038 | 1.79 ± 0.099 |
| GCCUUG | 1.576 ± 0.007 | 1.81 ± 0.1 |

| Variant | normalized RNA/DNA level without ligand (log10) (cyclic di-GMP [1]) | normalized RNA/DNA level with ligand (log10) (cyclic di-GMP [2]) |
| --- | --- | --- |
| GCCUUA | 1.657 ± 0.0086 | 1.82 ± 0.1 |
| ACCUGC | 1.71 ± 0.029 | 1.85 ± 0.076 |
| ACCUGU | 1.72 ± 0.063 | 1.84 ± 0.13 |
| ACCUGG | 1.68 ± 0.081 | 1.88 ± 0.049 |
| CCCGCC | 1.8 ± 0.13 | 1.92 ± 0.16 |
| CCCGCG | 1.79 ± 0.046 | 1.9 ± 0.044 |
| CCCGCA | 1.66 ± 0.037 | 1.8 ± 0.08 |
| CCCGCU | 1.74 ± 0.024 | 1.88 ± 0.11 |
| UCCUAG | 1.71 ± 0.018 | 1.82 ± 0.087 |
| UCCUAC | 1.75 ± 0.04 | 1.87 ± 0.14 |
| UCCUAA | 1.63 ± 0.077 | 1.79 ± 0.067 |
| UCCUAU | 1.63 ± 0.085 | 1.8 ± 0.097 |
| CCGCAA | 1.447 ± 0.014 | 1.68 ± 0.14 |
| CCGCAG | 1.54 ± 0.054 | 1.67 ± 0.12 |
| CCGCAU | 1.6 ± 0.035 | 1.77 ± 0.096 |
| UCGCUG | 1.69 ± 0.0043 | 1.84 ± 0.082 |
| UCGCUC | 1.742 ± 0.011 | 1.87 ± 0.14 |
| UCGCUU | 1.66 ± 0.018 | 1.84 ± 0.11 |
| UCGCUA | 1.46 ± 0.026 | 1.7 ± 0.047 |
| GCCCUU | 1.701 ± 0.0065 | 1.85 ± 0.097 |
| GCCCUC | 1.744 ± 0.0049 | 1.87 ± 0.12 |
| GCCCUG | 1.76 ± 0.021 | 1.86 ± 0.11 |
| UCGAAC | 1.62 ± 0.026 | 1.76 ± 0.1 |

| Variant | normalized RNA/DNA level without ligand (log10) (cyclic di-GMP [1]) | normalized RNA/DNA level with ligand (log10) (cyclic di-GMP [2]) |
| --- | --- | --- |
| UCGAAU | 1.45 ± 0.1 | 1.69 ± 0.059 |
| UCGAAG | 1.52 ± 0.097 | 1.74 ± 0.058 |
| CCCCCU | 1.704 ± 0.0062 | 1.86 ± 0.13 |
| CCCCCG | 1.79 ± 0.027 | 1.84 ± 0.071 |
| CCGGAG | 1.31 ± 0.13 | 1.52 ± 0.14 |
| CCGACU | 1.59 ± 0.082 | 1.74 ± 0.077 |
| CCGACG | 1.6 ± 0.089 | 1.79 ± 0.052 |
| ACGAGC | 1.62 ± 0.049 | 1.76 ± 0.084 |
| ACGAGG | 1.5 ± 0.06 | 1.69 ± 0.1 |
| ACCUAC | 1.7 ± 0.02 | 1.85 ± 0.075 |
| ACCUAG | 1.64 ± 0.053 | 1.78 ± 0.086 |
| CCCGUG | 1.62 ± 0.024 | 1.8 ± 0.09 |
| CCCGUU | 1.74 ± 0.032 | 1.87 ± 0.089 |
| ACCCGA | 1.54 ± 0.039 | 1.73 ± 0.13 |
| ACCCGG | 1.7 ± 0.022 | 1.86 ± 0.099 |
| ACCCGU | 1.73 ± 0.023 | 1.84 ± 0.08 |
| GCCGAG | 1.65 ± 0.031 | 1.72 ± 0.091 |
| CCCCUC | 1.73 ± 0.0095 | 1.87 ± 0.079 |
| GCGCCA | 1.699 ± 0.0061 | 1.84 ± 0.13 |
| GCGCCU | 1.774 ± 0.0061 | 1.88 ± 0.083 |
| GCGCCC | 1.79 ± 0.025 | 1.89 ± 0.038 |
| GCGCCG | 1.781 ± 0.0019 | 1.9 ± 0.1 |
| GCCGCA | 1.74 ± 0.0018 | 1.84 ± 0.14 |

| Variant | normalized RNA/DNA level without ligand (log10) (cyclic di-GMP [1]) | normalized RNA/DNA level with ligand (log10) (cyclic di-GMP [2]) |
| --- | --- | --- |
| GCCGCC | 1.72 ± 0.033 | 1.82 ± 0.075 |
| GCCGCG | 1.79 ± 0.03 | 1.92 ± 0.07 |
| GCCGUC | 1.54 ± 0.05 | 1.72 ± 0.12 |
| GCCGUU | 1.596 ± 0.013 | 1.77 ± 0.11 |
| GCCGUA | 1.57 ± 0.099 | 1.74 ± 0.068 |
| CCCCGC | 1.77 ± 0.03 | 1.88 ± 0.11 |
| CCCCGU | 1.76 ± 0.021 | 1.88 ± 0.14 |
| CCCCGA | 1.6835 ± 0.00018 | 1.84 ± 0.13 |
| CCCCGG | 1.83 ± 0.049 | 1.94 ± 0.11 |
| ACCCUU | 1.66 ± 0.046 | 1.78 ± 0.12 |
| ACCCUA | 1.624 ± 0.011 | 1.78 ± 0.072 |
| ACGCCU | 1.64 ± 0.099 | 1.8 ± 0.036 |
| ACGCCA | 1.675 ± 0.012 | 1.87 ± 0.09 |
| ACGCCG | 1.74 ± 0.046 | 1.85 ± 0.067 |
| CCGAAC | 1.56 ± 0.058 | 1.72 ± 0.12 |
| CCGAAU | 1.48 ± 0.13 | 1.68 ± 0.11 |
| ACCUUA | 1.67 ± 0.015 | 1.79 ± 0.14 |
| ACCUUG | 1.7 ± 0.065 | 1.81 ± 0.063 |
| ACCUUU | 1.63 ± 0.02 | 1.82 ± 0.081 |
| ACCUUC | 1.74 ± 0.042 | 1.83 ± 0.11 |
| CCGAGG | 1.624 ± 0.0052 | 1.8 ± 0.071 |
| CCGAGU | 1.63 ± 0.025 | 1.8 ± 0.13 |
| UCGCAG | 1.762 ± 0.0034 | 1.87 ± 0.13 |
